In patent publication US20200010534A1 (SAGABIO, published 2020):

What was measured:
[1] = biological target: T1, HpHSP60 fragment including positions 101-200 (Helicobacter pylori, UniProt B2UW12 101-200); assay: recognition of HpHSP60 fragments by the antibody (spot/blot, FIG. 15)
T1 construct: also called HSP 60 101-200
T1 sequence: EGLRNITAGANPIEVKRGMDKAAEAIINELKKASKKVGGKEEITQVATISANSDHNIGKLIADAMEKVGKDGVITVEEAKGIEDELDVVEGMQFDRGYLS

[2] = biological target: T2, HpHSP60 fragment Δ[1], positions 134-200 of HpHSP60 (Helicobacter pylori, UniProt B2UW12 134-200); assay: recognition of HpHSP60 fragments by the antibody (spot/blot, FIG. 16)
T2 sequence: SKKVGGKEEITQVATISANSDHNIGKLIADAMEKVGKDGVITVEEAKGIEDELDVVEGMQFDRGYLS

[3] = biological target: T3, HpHSP60 fragment Δ[5], positions 101-168 of HpHSP60 (Helicobacter pylori, UniProt B2UW12 101-168); assay: as above
T3 sequence: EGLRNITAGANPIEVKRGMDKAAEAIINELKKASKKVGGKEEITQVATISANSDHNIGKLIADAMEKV

B1: LHP-1 (9E4) antibody (antibody, V domains shown)
VH: EVHLVESGGDLVKPGGSLKLSCAASGFTFSSFGMSWVRQTPDKRLEWVATISNGGSYTYYPDSVKGRFTISRDNAKNTLYLQMSSLKSEDTAMYYCTRQGLRRRGAMDYWGQGTSVTVSS
VL: DIVLTQSPASLAVSLGQRATISCKASQSVDYDGDVFLNWYQQKPGQPPKLLIYAASNLESGIPARFSGSGSGTDFTLNIHPVEEDDAATYYCQQSNEVPWTFGGGTKLEIK
notes: Mouse monoclonal antibody from hybridoma 9E4 (ATCC PTA-122900); The variable regions are tied to the deposited hybridoma only in the claims; also called LHP-1 (9E4) mAb; monoclonal antibody produced by hybridoma ATCC PTA-122900
binding result [1]: binds | binding result [2]: binds | binding result [3]: no binding
